Results: patent US20140223606, “COMPOSITIONS AND METHODS COMPRISING SEQUENCES HAVING MEGANUCLEASE ACTIVITY” (PIONEER HI BRED INTERNATIONAL INC, published 2014)
Changes are numbered by the printed parent chain.

Columns and labels:
Details in all cases: tags: NLS, 6xHis
ZM6.3(G5) = target: T1, ZM6.3(G5) (artificial); experiment: cell_activity; yeast 37 C; 28 C: 0
T1 chain: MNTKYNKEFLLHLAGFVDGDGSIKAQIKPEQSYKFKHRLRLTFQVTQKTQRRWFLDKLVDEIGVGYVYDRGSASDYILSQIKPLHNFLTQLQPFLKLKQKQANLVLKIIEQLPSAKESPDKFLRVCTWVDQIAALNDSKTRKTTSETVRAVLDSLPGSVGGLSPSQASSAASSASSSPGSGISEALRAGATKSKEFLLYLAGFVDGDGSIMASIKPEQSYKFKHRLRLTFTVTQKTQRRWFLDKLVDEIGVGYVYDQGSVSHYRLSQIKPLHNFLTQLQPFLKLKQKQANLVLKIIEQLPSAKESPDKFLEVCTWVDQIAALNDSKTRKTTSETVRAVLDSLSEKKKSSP
Procedure: A 3 mL culture of selective media (MP Biomedical) was inoculated with a single colony of the yeast screening strain and grown at 30° C. overnight. On the following day, a 50 ml YPD culture (MP Biomedical) was started with 2 ml of the overnight culture and grown at 30° C. overnight. On the following day, the cells were harvested by centrifugation at 4000 rpm. The cells were resuspended in 100 ml ice cold water and centrifuged again. The cells were then washed in 1.2 M sorbitol, followed by treatment with 2 ml of 10 mM Tris pH 8.0, 1 mM EDTA, 100 mM Lithium acetate, 10 mM DTT, 0.6M sorbitol for 30 minutes at 30° C. with shaking. The cells were recovered by centrifugation, washed in 40 ml 1.2M sorbitol and finally resuspended in 250 microliters of 1.2M sorbitol. 50 microliter aliquots were transferred to test tubes on ice. Up to 5 microliters of DNA (100-500 nanograms) were added. The suspension was transferred to a 0.2 cm electroporation cuvette, on ice. Electroporation was performed with a pulse charge at 1.5 kV, 200 ohms, 25 microF (pulse time of 5 milliseconds). 1 mL YPD media (MP Biomedical) was added and the cells were allowed to recover at 30° C. for 1-2 hr. The cells were centrifuged, resuspended in 100 uL 1M sorbitol and plated on selective media lacking leucine and containing 2% galactose. The resulting yeast colonies were incubated at various temperatures ranging from 22 to 37 degrees Celsius for 7-10 days. I-CreI and meganucleases derived from it have maximal activity at or above 37 degrees Celsius. Screening was performed at a range of temperatures from 22 to 37 degrees in order to observe increases in activity at lower temperatures which are relevant to certain biological systems (eg. plant cells, plant cell cultures, etc). At that time the red/white sectoring phenotype, indicative of meganuclease activity was observed. Colonies with increased white sectoring over the parental meganuclease (indicating colonies expressing a meganuclease with increased meganuclease activity), also referred to as “hits” and sometimes completely white, were isolated for further analysis. […]

ZM6.3(H2) = target: T2, ZM6.3(H2) (artificial); experiment: cell_activity; yeast 37 C; 28 C: 2
T2 chain: T1 chain with A73V, V105A, Q237R, D340L
Procedure: (§1) A 3 mL culture of selective media (MP Biomedical) was inoculated with a single colony of the yeast screening strain and grown at 30° C. overnight. On the following day, a 50 ml YPD culture (MP Biomedical) was started with 2 ml of the overnight culture and grown at 30° C. overnight. On the following day, the cells were harvested by centrifugation at 4000 rpm. The cells were resuspended in 100 ml ice cold water and centrifuged again. The cells were then washed in 1.2 M sorbitol, followed by treatment with 2 ml of 10 mM Tris pH 8.0, 1 mM EDTA, 100 mM Lithium acetate, 10 mM DTT, 0.6M sorbitol for 30 minutes at 30° C. with shaking. The cells were recovered by centrifugation, washed in 40 ml 1.2M sorbitol and finally resuspended in 250 microliters of 1.2M sorbitol. 50 microliter aliquots were transferred to test tubes on ice. Up to 5 microliters of DNA (100-500 nanograms) were added. The suspension was transferred to a 0.2 cm electroporation cuvette, on ice. Electroporation was performed with a pulse charge at 1.5 kV, 200 ohms, 25 microF (pulse time of 5 milliseconds). 1 mL YPD media (MP Biomedical) was added and the cells were allowed to recover at 30° C. for 1-2 hr. The cells were centrifuged, resuspended in 100 uL 1M sorbitol and plated on selective media lacking leucine and containing 2% galactose. The resulting yeast colonies were incubated at various temperatures ranging from 22 to 37 degrees Celsius for 7-10 days. I-CreI and meganucleases derived from it have maximal activity at or above 37 degrees Celsius. Screening was performed at a range of temperatures from 22 to 37 degrees in order to observe increases in activity at lower temperatures which are relevant to certain biological systems (eg. plant cells, plant cell cultures, etc). At that time the red/white sectoring phenotype, indicative of meganuclease activity was observed. Colonies with increased white sectoring over the parental meganuclease (indicating colonies expressing a meganuclease with increased meganuclease activity), also referred to as “hits” and sometimes completely white, were isolated for further analysis.
(§2) A total of 15 Zm6.3 variants with increased activity were confirmed in the yeast system (as described in Example 6). Increased activity was observed across a range of temperatures: 28 degrees Celsius, 30 degrees Celsius and 37 degrees Celsius, as shown in Table 15.

ZM6.3(H3) = target: T3, ZM6.3(H3) (artificial); experiment: cell_activity; yeast 37 C; 28 C: 2
T3 chain: T1 chain with Q50R, A73V, R124E, E311R
Procedure: as §1, §2

ZM6.3(G3) = target: T4, ZM6.3(G3) (artificial); experiment: cell_activity; yeast 37 C; 28 C: 2
T4 chain: T1 chain with H12Y, Q50R, F54I, A73V, R124E
Procedure: as §1, §2

ZM6.3(G4) = target: T5, ZM6.3(G4) (artificial); experiment: cell_activity; yeast 37 C; 28 C: 2
T5 chain: T1 chain with S32R, A73V
Procedure: as §1, §2

B1: ZM6.3 recognition site (dsDNA)
DNA 1: CAGGCTCTCGTAAATGCGCCTG
DNA 2: CAGGCGCATTTACGAGAGCCTG
Q: With B1 as the binder, how does the activity (ZM6.3(G5)) read?
A: The activity was 2 score 0-4.

Q: What about the activity (ZM6.3(H2)) of the same binder?
A: Its activity is 4 score 0-4.

Q: What about the activity (ZM6.3(H3)) of the same binder?
A: Its activity is 4 score 0-4.

Q: And the activity (ZM6.3(G3))?
A: The activity was 4 score 0-4.

Q: What about the activity (ZM6.3(G4)) of the same binder?
A: Its activity is 4 score 0-4.
